Like-named read-outs stand apart in the source and are kept apart here.
Columns and labels:
Test in all cases: FRET or BRET
[1] = target: S. oneidensis RNA polymerase core (α, β, β′, ω), assembled in vivo (Shewanella oneidensis MR-1) (UniProt Q8EK47)
[2] = target: S. oneidensis RNA polymerase core (α, β, β′, ω), assembled in vivo (Shewanella oneidensis MR-1) (UniProt Q8EK47); remark: listed apart in the source
[3] = target: S. oneidensis RNA polymerase core (α, β, β′, ω), assembled in vivo (Shewanella oneidensis MR-1) (UniProt Q8EK47); remark: listed apart in the source

σ^70 retention half-life [1]: 1.33 h
initial σ^70 retention (%) [2]: 59%
σ^70 retention half-life [2]: 1.25 h
initial σ^70 retention (%) [3]: 45%
σ^70 retention half-life [3]: 0.717 h
Substance: Cy3B-labelled single-cysteine S. oneidensis σ^70 derivative N399C (from UniProt Q8EHE1 1-616) (natural protein)
